Test system: Escherichia coli TOP10
Assay: shrunken log2 fold change of peptide-encoding DNA abundance (4.5 h post-induction vs induction); higher = less antimicrobial activity (less host growth inhibition)
Details: time post-induction: 4.5 h; library: site-saturation at positions 5, 18, 19, 20
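Also: peptides expressed intracellularly from a pBAD plasmid library in pooled LB shake-flask culture, induced with 0.3% L-arabinose, DNA abundance read by NGS, three biological replicates, DESeq2 with apeglm shrinkage.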

Row | Sequence | shrunken log2 fold change
1 | RRIRVRPPRLPRPRPRPSIPPRP | -0.52
2 | RRIRHRPPRLPRPRPRPWCCPRP | -0.352
3 | RRIRARPPRLPRPRPRPEWKPRP | 0.0235
4 | RRIRARPPRLPRPRPRPKPMPRP | 0.831
5 | RRIRNRPPRLPRPRPRPCYHPRP | -0.0967
6 | RRIRDRPPRLPRPRPRPNDRPRP | -0.12
7 | RRIRNRPPRLPRPRPRPLPDPRP | -0.0552
8 | RRIRCRPPRLPRPRPRPPIAPRP | 1.41
9 | RRIRMRPPRLPRPRPRPVKMPRP | -0.124
10 | RRIRRRPPRLPRPRPRPIQKPRP | -0.218
11 | RRIRVRPPRLPRPRPRPLCFPRP | 0.258
12 | RRIRHRPPRLPRPRPRPVSHPRP | 0.0628
13 | RRIRNRPPRLPRPRPRPRHPPRP | 0.136
14 | RRIRMRPPRLPRPRPRPICIPRP | 0.0141
15 | RRIRRRPPRLPRPRPRPISKPRP | -0.198
16 | RRIRLRPPRLPRPRPRPNEHPRP | -0.175
17 | RRIRARPPRLPRPRPRPHWKPRP | -0.00664
18 | RRIRSRPPRLPRPRPRPRNRPRP | -0.198
19 | RRIRVRPPRLPRPRPRPHRSPRP | -0.164
20 | RRIRERPPRLPRPRPRPRKQPRP | 0.00709
21 | RRIRARPPRLPRPRPRPSWIPRP | -0.0935
22 | RRIRNRPPRLPRPRPRPKDVPRP | -0.0116
23 | RRIRNRPPRLPRPRPRPSPLPRP | -0.334
24 | RRIRNRPPRLPRPRPRPCLDPRP | -0.0122
25 | RRIRDRPPRLPRPRPRPPWMPRP | 0.261

Row | Sequence | shrunken log2 fold change
26 | RRIRTRPPRLPRPRPRPCAKPRP | 0.423
27 | RRIRTRPPRLPRPRPRPEINPRP | -0.106
28 | RRIRCRPPRLPRPRPRPHDWPRP | 0.112
29 | RRIRVRPPRLPRPRPRPHLEPRP | -0.133
30 | RRIRPRPPRLPRPRPRPKGGPRP | 1.33
31 | RRIRTRPPRLPRPRPRPKCEPRP | 0.118
32 | RRIRMRPPRLPRPRPRPFARPRP | 0.412
33 | RRIRARPPRLPRPRPRPTSNPRP | 0.00789
34 | RRIRTRPPRLPRPRPRPLEPPRP | 0.021
35 | RRIRIRPPRLPRPRPRPFAEPRP | -0.221
36 | RRIRGRPPRLPRPRPRPDNIPRP | 0.119
37 | RRIRSRPPRLPRPRPRPRKCPRP | 0.149
38 | RRIRKRPPRLPRPRPRPCHIPRP | -0.00879
39 | RRIRKRPPRLPRPRPRPEEMPRP | -0.000157
40 | RRIRNRPPRLPRPRPRPGEYPRP | 0.0536
41 | RRIRIRPPRLPRPRPRPDIVPRP | -0.906
42 | RRIRQRPPRLPRPRPRPGAWPRP | 0.256
43 | RRIRGRPPRLPRPRPRPNCHPRP | 0.415
44 | RRIRSRPPRLPRPRPRPWDEPRP | -0.0358
45 | RRIRFRPPRLPRPRPRPHKRPRP | 0.0127
46 | RRIRKRPPRLPRPRPRPVALPRP | -0.0167
47 | RRIRCRPPRLPRPRPRPSHGPRP | -0.33
48 | RRIRWRPPRLPRPRPRPCLMPRP | -0.225
49 | RRIRMRPPRLPRPRPRPTPLPRP | 1.01
50 | RRIRRRPPRLPRPRPRPHRNPRP | -0.317

Row | Sequence | shrunken log2 fold change
51 | RRIRARPPRLPRPRPRPDNCPRP | -0.153
52 | RRIRDRPPRLPRPRPRPIQNPRP | 0.0608
53 | RRIRYRPPRLPRPRPRPLYAPRP | -1.49
54 | RRIRPRPPRLPRPRPRPTRNPRP | 0.201
55 | RRIRPRPPRLPRPRPRPKKHPRP | -0.0812
56 | RRIRMRPPRLPRPRPRPLHFPRP | -0.0889
57 | RRIRTRPPRLPRPRPRPDWTPRP | -0.179
58 | RRIRKRPPRLPRPRPRPQQLPRP | 0.0814
59 | RRIRGRPPRLPRPRPRPYMQPRP | -0.212
60 | RRIRDRPPRLPRPRPRPSPTPRP | -0.0251
61 | RRIRTRPPRLPRPRPRPSRTPRP | 0.305
62 | RRIRDRPPRLPRPRPRPKCWPRP | -0.00042
63 | RRIRDRPPRLPRPRPRPSPNPRP | 0.122
64 | RRIRERPPRLPRPRPRPSRNPRP | -0.207
65 | RRIRPRPPRLPRPRPRPHHQPRP | -0.399
66 | RRIRKRPPRLPRPRPRPSSCPRP | 0.31
67 | RRIRIRPPRLPRPRPRPYIVPRP | -0.0153
68 | RRIRPRPPRLPRPRPRPCMGPRP | -0.398
69 | RRIRGRPPRLPRPRPRPKDIPRP | -0.0187
70 | RRIRQRPPRLPRPRPRPLSYPRP | 0.121
71 | RRIRQRPPRLPRPRPRPNINPRP | -0.633
72 | RRIRERPPRLPRPRPRPVGPPRP | -0.0231
73 | RRIRKRPPRLPRPRPRPSKMPRP | 0.025
74 | RRIRHRPPRLPRPRPRPHWLPRP | -0.123
75 | RRIRLRPPRLPRPRPRPKNMPRP | -0.448

Reference: the supplement of paper PMC9112550, “Optimization of the antimicrobial peptide Bac7 by deep mutational scanning” (BMC Biology, 2022)
